Paper PMC3150355, “TAT-Mediated Transduction of MafA Protein In Utero Results in Enhanced Pancreatic Insulin Expression and Changes in Islet Morphology”

Target: TAT-MafA (unphosphorylated, PBS treated) (human, UniProt Q8NHW3 1-353)
Assay: EMSA; unphosphorylated; basal DNA-binding activity; Pierce LightShift chemiluminescent EMSA kit; 200 fmol/ul biotin-DNA, unlabeled competitor 10 pmol/ul, 82.15 ug TAT-MafA; ERK2 or PBS 37 C 1 h, then 20 min binding; buffer, pH and binding temperature not stated
Details: protein: recombinant; TAT PTD (11 aa) and 6xHis, pTAT-2.1 (pET28); chain copies: 2; blunt

TAT-MafA (unphosphorylated, PBS treated), sequence (Q8NHW3 whole entry): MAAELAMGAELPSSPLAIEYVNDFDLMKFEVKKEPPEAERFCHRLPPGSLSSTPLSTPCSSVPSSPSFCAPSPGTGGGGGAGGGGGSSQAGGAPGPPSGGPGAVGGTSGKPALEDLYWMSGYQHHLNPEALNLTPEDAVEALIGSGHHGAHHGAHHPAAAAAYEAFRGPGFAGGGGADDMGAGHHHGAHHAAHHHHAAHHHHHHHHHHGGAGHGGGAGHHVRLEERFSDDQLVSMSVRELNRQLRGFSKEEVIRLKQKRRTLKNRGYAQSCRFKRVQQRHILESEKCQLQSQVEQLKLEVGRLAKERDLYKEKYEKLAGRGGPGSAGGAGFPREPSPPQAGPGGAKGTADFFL

B1: insulin promoter -139 to -104 (C1 box) (dsDNA)
DNA 1: ATGGTCCGGAAATTGCAGCCTCAGCCCCCAGCCATC
DNA 2: GATGGCTGGGGGCTGAGGCTGCAATTTCCGGACCAT
- binding result: binds
